The values below come from patent publication US20090155833A1 (TEIJIN PHARMA, published 2009).

In the assay the target is T1, mouse GPR12 (mouse, UniProt P35412 1-334).
T1 sequence: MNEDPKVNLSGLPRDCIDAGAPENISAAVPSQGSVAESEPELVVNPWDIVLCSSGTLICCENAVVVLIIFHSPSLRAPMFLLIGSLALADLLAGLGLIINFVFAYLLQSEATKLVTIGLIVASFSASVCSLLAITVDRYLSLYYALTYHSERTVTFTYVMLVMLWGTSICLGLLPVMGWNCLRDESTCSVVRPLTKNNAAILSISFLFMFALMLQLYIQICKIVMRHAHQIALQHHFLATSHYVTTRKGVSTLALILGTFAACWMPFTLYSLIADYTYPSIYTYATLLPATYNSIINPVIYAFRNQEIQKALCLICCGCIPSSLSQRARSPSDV
Kind of assay: cell-based or functional assay.

On to PDTGLYYDEYLKQVIDVLETDKHFREKLQK [Nesfatin-1M30], for which the “intracellular cAMP level (Fold against the (-) group), CHO-K1-GPR12 cells, 10^-9 M peptide with 10^-5 M Forskolin” value was roughly 5 fold.
